# Patent publication US20170362327A1 (GLENMARK PHARMACEUTICALS S A, published 2017)
# Legend:
# [1] = biological target: T1, monovalent human TrkA extracellular region (human, UniProt P04629 33-423); experiment: SPR (BIAcore 2000), antibody captured via anti-mouse immunoglobulin, monovalent TrkA extracellular region as analyte
# T1 construct: also called recombinant monovalent human TrkA extracellular domain
# Experimental: (§1) SPR analysis was used to measure the association and dissociation rate constants for the binding kinetics of the different antibodies (mouse and humanized antibodies). The binding kinetics of the mouse antibody and humanized variants were measured on a BIACORE 2000 instrument (GE Healthcare Europe GmbH, Glattbrugg, Switzerland) at room temperature, and analyzed with the BiaEvaluation software (v4.1, GE Healthcare Europe GmbH, Glattbrugg, Switzerland).
# (§2) Antibodies were immobilized via capture of their Fc portion to allow for correct orientation on the sensor chip surface. A monoclonal mouse anti-human IgG (Fc) antibody sensor chip was used to capture all humanized antibodies regardless of their isotypes (Human Antibody Capture Kit, catalogue number BR-1008-39, GE Healthcare Europe GmbH), and a polyclonal rabbit anti-mouse immunoglobulin sensor chip was used to capture the MNAC13 mouse antibody (Mouse Antibody Capture Kit, catalogue number BR-1008-38, GE Healthcare Europe GmbH).
# (§3) Data (sensorgram: fc2-fc1) were fitted with a 1:1 Langmuir model with mass transfer in spite of having little mass transfer limitation in mass transfer tests. To account for the experimental variations in captured antibody at the beginning of each measurement, the Rmax value was set to local in all fits. Dissociation times were of at least 350 seconds. Measurements were performed in triplicate, and included zero-concentration samples for referencing. Both Chi2 and residual values were used to evaluate the quality of a fit between the experimental data and individual binding models.
# [2] = biological target: T1, monovalent human TrkA extracellular …; experiment: SPR (BIAcore 2000), antibody captured via Fc, monovalent TrkA extracellular region as analyte
# Experimental: as §1, §2, §3
# [3] = biological target: T1, monovalent human TrkA extracellular …; experiment: as above; remark: listed apart in the source
# Experimental: as §1, §2, §3
# [4] = biological target: T1, monovalent human TrkA extracellular …; experiment: SPR, against BXhVH5VL1
# Experimental: as §1, §2, §3
# T1 sequence (P04629 33-423): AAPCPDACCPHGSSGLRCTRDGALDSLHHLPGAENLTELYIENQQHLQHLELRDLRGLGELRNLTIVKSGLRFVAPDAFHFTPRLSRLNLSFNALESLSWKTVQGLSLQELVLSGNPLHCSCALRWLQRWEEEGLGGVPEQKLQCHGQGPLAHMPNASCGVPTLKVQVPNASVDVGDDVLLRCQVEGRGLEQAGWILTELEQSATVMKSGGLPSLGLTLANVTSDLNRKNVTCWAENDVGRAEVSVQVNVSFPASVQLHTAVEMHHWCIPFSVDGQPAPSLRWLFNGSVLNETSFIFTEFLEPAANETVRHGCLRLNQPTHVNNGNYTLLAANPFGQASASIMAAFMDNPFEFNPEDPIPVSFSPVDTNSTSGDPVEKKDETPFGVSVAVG
Binder,Kd [2],koff [2],kon [2],Kd [3],further results
"MNAC13 mouse antibody (antibody, mouse IgG1, kappa, V domains shown, Mouse monoclonal anti-TrkA antibody; also called parental murine antibody) VH: EVKLVESGGGLVQPGGSLKLSCAASGFTFSTYTMSWARQTPEKRLEWVAYISKGGGSTYYPDTVKGRFTISRDNAKNTLYLQMSSLKSEDTALYYCARGAMYGNDFFYPMDYWGQGTSVTVSS VL: QIVLTQSPAIMSASLGEEITLTCSASSSVSYMHWYQQKSGTSPKLLIYTTSNLASGVPSRFSGSGSGTFYSLTISSVEAEDAADYYCHQWSSYPWTFGGGTKLEIKA",–,–,–,–,Kd [1]: 18 nM; koff [1]: 0.00109 s⁻¹; kon [1]: 60200 M⁻¹ s⁻¹
"BXhVH1VL1 (antibody, human IgG1, kappa, V domains shown, IGHG1, kappa) VH: EVQLLESGGGLVQPGGSLRLSCAASGFTFSTYTMSWVRQAPGKGLEWVSYISKGGGSTYYPDTVKGRFTISRDNSKNTLYLQMNSLRAEDTAVYYCAKGAMYGNDFFYPMDYWGQGTTVTVSS VL: EIVLTQSPATLSLSPGERATLSCSASSSVSYMHWYQQKPGQAPRLLIYTTSNLASGIPARFSGSGSGTDFTLTISSLEPEDFAVYYCHQWSSYPWTFGQGTKLEIKR",426 nM,0.0133 s⁻¹,31300 M⁻¹ s⁻¹,–,–
"BXhVH3VL1 (antibody, human IgG1, kappa, IGHG1, kappa) heavy: not shown light: EIVLTQSPATLSLSPGERATLSCSASSSVSYMHWYQQKPGQAPRLLIYTTSNLASGIPARFSGSGSGTDFTLTISSLEPEDFAVYYCHQWSSYPWTFGQGTKLEIKRTVAAPSVFIFPPSDEQLKSGTASVVCLLNNFYPREAKVQWKVDNALQSGNSQESVTEQDSKDSTYSLSSTLTLSKADYEKHKVYACEVTHQGLSSPVTKSFNRGEC",133 nM,0.00619 s⁻¹,46500 M⁻¹ s⁻¹,–,–
"GBR VH1(V37A)VL1 (antibody, human IgG1, kappa, V domains shown, IGHG1, kappa) VH: EVQLLESGGGLVQPGGSLRLSCAASGFTFSTYTMSWARQAPGKGLEWVSYISKGGGSTYYPDTVKGRFTISRDNSKNTLYLQMNSLRAEDTAVYYCAKGAMYGNDFFYPMDYWGQGTTVTVSS VL: EIVLTQSPATLSLSPGERATLSCSASSSVSYMHWYQQKPGQAPRLLIYTTSNLASGIPARFSGSGSGTDFTLTISSLEPEDFAVYYCHQWSSYPWTFGQGTKLEIKR",338 nM,0.00663 s⁻¹,19600 M⁻¹ s⁻¹,–,–
"GBR VH3(V37A)VL1 (antibody, human IgG1, kappa, V domains shown, IGHG1, kappa) VH: EVQLLESGGGLVQPGGSLRLSCAASGFTFSTYTMSWARQTPGKRLEWVAYISKGGGSTYYPDTVKGRFTISRDNSKNTLYLQMNSLRAEDTAVYYCAKGAMYGNDFFYPMDYWGQGTTVTVSS VL: EIVLTQSPATLSLSPGERATLSCSASSSVSYMHWYQQKPGQAPRLLIYTTSNLASGIPARFSGSGSGTDFTLTISSLEPEDFAVYYCHQWSSYPWTFGQGTKLEIKR",123 nM,0.00471 s⁻¹,38200 M⁻¹ s⁻¹,–,–
"GBR VH3(V37A)VL3 (antibody, human IgG1, kappa, V domains shown, IGHG1, kappa) VH: EVQLLESGGGLVQPGGSLRLSCAASGFTFSTYTMSWARQTPGKRLEWVAYISKGGGSTYYPDTVKGRFTISRDNSKNTLYLQMNSLRAEDTAVYYCAKGAMYGNDFFYPMDYWGQGTTVTVSS VL: QIVLTQSPATLSLSPGERATLSCSASSSVSYMHWYQQKPGQSPRLLIYTTSNLASGIPSRFSGSGSGTFYTLTISSLEPEDFAVYYCHQWSSYPWTFGGGTKLEIKR",95 nM,0.00295 s⁻¹,31000 M⁻¹ s⁻¹,–,–
"BXhVH5VL3 (antibody, human IgG1, kappa, V domains shown) VH: EVKLLESGGGLVQPGGSLRLSCAASGFTFSTYTMSWVRQTPGKRLEWVAYISKGGGSTYYPDTVKGRFTISRDNSKNTLYLQMNSLRAEDTAVYYCARGAMYGNDFFYPMDYWGQGTTVTVSS VL: QIVLTQSPATLSLSPGERATLSCSASSSVSYMHWYQQKPGQSPRLLIYTTSNLASGIPSRFSGSGSGTFYTLTISSLEPEDFAVYYCHQWSSYPWTFGGGTKLEIKR",63 nM,0.00395 s⁻¹,62300 M⁻¹ s⁻¹,–,–
"BXhVH3VL3 (antibody, human IgG1, kappa, V domains shown, IGHG1, kappa) VH: EVQLLESGGGLVQPGGSLRLSCAASGFTFSTYTMSWVRQTPGKRLEWVAYISKGGGSTYYPDTVKGRFTISRDNSKNTLYLQMNSLRAEDTAVYYCAKGAMYGNDFFYPMDYWGQGTTVTVSS VL: QIVLTQSPATLSLSPGERATLSCSASSSVSYMHWYQQKPGQSPRLLIYTTSNLASGIPSRFSGSGSGTFYTLTISSLEPEDFAVYYCHQWSSYPWTFGGGTKLEIKR",134 nM,0.00459 s⁻¹,31400 M⁻¹ s⁻¹,–,–
"GBR VH5(V37A)VL1 IGHG4 S228P (antibody, human IgG4 S228P, kappa, IGHG4 isotype with S228P (EU) hinge substitution, kappa) heavy: not shown light: EIVLTQSPATLSLSPGERATLSCSASSSVSYMHWYQQKPGQAPRLLIYTTSNLASGIPARFSGSGSGTDFTLTISSLEPEDFAVYYCHQWSSYPWTFGQGTKLEIKRTVAAPSVFIFPPSDEQLKSGTASVVCLLNNFYPREAKVQWKVDNALQSGNSQESVTEQDSKDSTYSLSSTLTLSKADYEKHKVYACEVTHQGLSSPVTKSFNRGEC",–,–,–,15 nM,–

# Second part, led by results:
Kd [2],koff [2],kon [2],Kd [3],Binder,further results
28 nM,0.00205 s⁻¹,74500 M⁻¹ s⁻¹,–,"GBR VH5(V37A)VL3 (antibody, human IgG1, kappa, V domains shown, IGHG1, kappa) VH: EVKLLESGGGLVQPGGSLRLSCAASGFTFSTYTMSWARQTPGKRLEWVAYISKGGGSTYYPDTVKGRFTISRDNSKNTLYLQMNSLRAEDTAVYYCARGAMYGNDFFYPMDYWGQGTTVTVSS VL: QIVLTQSPATLSLSPGERATLSCSASSSVSYMHWYQQKPGQSPRLLIYTTSNLASGIPSRFSGSGSGTFYTLTISSLEPEDFAVYYCHQWSSYPWTFGGGTKLEIKR",–
–,–,–,52 nM,"GBR VH5(R94K)VL1 (antibody, human IgG1, kappa, IGHG1, kappa) heavy: not shown light: EIVLTQSPATLSLSPGERATLSCSASSSVSYMHWYQQKPGQAPRLLIYTTSNLASGIPARFSGSGSGTDFTLTISSLEPEDFAVYYCHQWSSYPWTFGQGTKLEIKRTVAAPSVFIFPPSDEQLKSGTASVVCLLNNFYPREAKVQWKVDNALQSGNSQESVTEQDSKDSTYSLSSTLTLSKADYEKHKVYACEVTHQGLSSPVTKSFNRGEC",–
–,–,–,48 nM,"GBR VH5(K3Q, V37A, T40A, P60A, T62S)VL1 (antibody, human IgG1, kappa, V domains shown, IGHG1, kappa) VH: EVQLLESGGGLVQPGGSLRLSCAASGFTFSTYTMSWARQAPGKRLEWVAYISKGGGSTYYADSVKGRFTISRDNSKNTLYLQMNSLRAEDTAVYYCARGAMYGNDFFYPMDYWGQGTTVTVSS VL: EIVLTQSPATLSLSPGERATLSCSASSSVSYMHWYQQKPGQAPRLLIYTTSNLASGIPARFSGSGSGTDFTLTISSLEPEDFAVYYCHQWSSYPWTFGQGTKLEIKR",–
–,–,–,20 nM,"GBR VH5(K3Q, V37A, R44G)VL1 (antibody, human IgG1, kappa, V domains shown, IGHG1, kappa) VH: EVQLLESGGGLVQPGGSLRLSCAASGFTFSTYTMSWARQTPGKGLEWVAYISKGGGSTYYPDTVKGRFTISRDNSKNTLYLQMNSLRAEDTAVYYCARGAMYGNDFFYPMDYWGQGTTVTVSS VL: EIVLTQSPATLSLSPGERATLSCSASSSVSYMHWYQQKPGQAPRLLIYTTSNLASGIPARFSGSGSGTDFTLTISSLEPEDFAVYYCHQWSSYPWTFGQGTKLEIKR",–
15.4 nM,0.00262 s⁻¹,170000 M⁻¹ s⁻¹,15.4 nM,"GBR VH5(K3Q,V37A)VL1 (antibody, human IgG1, kappa, IGHG1, kappa) heavy: not shown light: EIVLTQSPATLSLSPGERATLSCSASSSVSYMHWYQQKPGQAPRLLIYTTSNLASGIPARFSGSGSGTDFTLTISSLEPEDFAVYYCHQWSSYPWTFGQGTKLEIKRTVAAPSVFIFPPSDEQLKSGTASVVCLLNNFYPREAKVQWKVDNALQSGNSQESVTEQDSKDSTYSLSSTLTLSKADYEKHKVYACEVTHQGLSSPVTKSFNRGEC",fold decrease of KD against BXhVH5VL1 [4]: 2.7 fold
16 nM,0.00225 s⁻¹,140000 M⁻¹ s⁻¹,16 nM,"GBR VH5(V37A)VL1 (antibody, human IgG1, kappa, IGHG1, kappa; also called GBR VH5(V37A)VL1 IGHG1 antibody; GBR VH5 (V37A)VL1 antibody) heavy: not shown light: EIVLTQSPATLSLSPGERATLSCSASSSVSYMHWYQQKPGQAPRLLIYTTSNLASGIPARFSGSGSGTDFTLTISSLEPEDFAVYYCHQWSSYPWTFGQGTKLEIKRTVAAPSVFIFPPSDEQLKSGTASVVCLLNNFYPREAKVQWKVDNALQSGNSQESVTEQDSKDSTYSLSSTLTLSKADYEKHKVYACEVTHQGLSSPVTKSFNRGEC",fold decrease of KD against BXhVH5VL1 [4]: 2.5 fold; fold increase in affinity against BXhVH5VL1 [4]: 2.5 fold
–,–,–,15 nM,"GBR VH5(K3Q,V37A)VL1 IGHG4 S228P (antibody, human IgG4 S228P, kappa, IGHG4 isotype with S228P (EU) hinge substitution, kappa) heavy: not shown light: EIVLTQSPATLSLSPGERATLSCSASSSVSYMHWYQQKPGQAPRLLIYTTSNLASGIPARFSGSGSGTDFTLTISSLEPEDFAVYYCHQWSSYPWTFGQGTKLEIKRTVAAPSVFIFPPSDEQLKSGTASVVCLLNNFYPREAKVQWKVDNALQSGNSQESVTEQDSKDSTYSLSSTLTLSKADYEKHKVYACEVTHQGLSSPVTKSFNRGEC",–
